# Laboratory results published in patent US10822385B2, “EGF(A) analogues with fatty acid substituents” (Novo Nordisk A/S, priority 2016, dated 2020).
# Target: T1, hPCSK9 (Homo sapiens, UniProt Q8NBP7)
# T1 construct: purchased Sino Biologicals, China; host or cells: injected into BalBC or NMRI mice
# Assay: hPCSK9 challenge model, hepatic LDL-R expression in mice (Western Blot)
# Type: in vivo, mouse
# Conditions: inhibitor 22 nmol/kg, hPCSK9 0.4 mg/kg i.v., healthy control = 100%, hPCSK9 alone = 0%
# Description: The aim of this study was to show the change in the LDL receptor expression level in mouse liver in response to inhibiting the action of intravenously injected hPCSK9 with an anti-PCSK9 peptide.
# Healthy male BalBC or NMRI mice (Charles River, Germany) are injected with an anti-PCSK9 peptide, either s.c. or i.v. 15-120 minutes before injecting hPCSK9 (Sino Biologicals, China) intravenously in the tail vein at a dose of 0.4 mg/kg. Sixty minutes after the injection of hPCSK9, the animals are anaesthetised in isoflurane and euthanised by cervical dislocation. The liver is then quickly excised and snapfrozen in liquid nitrogen. The livers are kept at −80 degrees celsius until analysis.
# Equal protein transfer was confirmed by Ponceau S (Sigma, P7170) staining of the membranes and the membranes were further blocked in blocking buffer (TBS-T, 2% Tween). […] Quantitative analysis of chemiluminescent signals from Western blots was done with MultiGauge software (Fujifilm).
# “Vehicle-vehicle” is the group of healthy controls (baseline level), “vehicle-hPCSK9” is the group injected with hPCSK9 alone.
# In Table 8, data are presented as percentage change in relation to the window between baseline level in healthy control animals (set to 100%) and the level after down regulation by hPCSK9 alone (set to 0%).
# T1 sequence (Q8NBP7 153-692): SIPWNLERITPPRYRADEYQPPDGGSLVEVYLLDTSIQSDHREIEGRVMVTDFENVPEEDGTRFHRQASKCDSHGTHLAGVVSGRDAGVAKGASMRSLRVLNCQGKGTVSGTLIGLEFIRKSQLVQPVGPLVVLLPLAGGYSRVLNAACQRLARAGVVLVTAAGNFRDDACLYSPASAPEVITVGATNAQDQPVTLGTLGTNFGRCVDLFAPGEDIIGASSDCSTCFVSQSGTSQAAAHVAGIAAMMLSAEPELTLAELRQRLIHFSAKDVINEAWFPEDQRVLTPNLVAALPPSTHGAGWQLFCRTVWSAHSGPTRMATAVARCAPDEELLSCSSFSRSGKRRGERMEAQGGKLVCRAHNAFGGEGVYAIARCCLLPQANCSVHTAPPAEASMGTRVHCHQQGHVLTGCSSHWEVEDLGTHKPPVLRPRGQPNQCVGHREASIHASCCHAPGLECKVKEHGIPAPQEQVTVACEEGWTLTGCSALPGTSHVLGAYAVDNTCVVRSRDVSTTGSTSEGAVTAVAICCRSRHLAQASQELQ
substance,measurement,value
"Alirocumab: anti-PCSK9 antibody, control molecule in the hPCSK9 challenge model",Percentage of baseline (hepatic LDL-R expression),157%
